Values quoted from earlier work in paper PMC13051815.

Legend:
[1] = target: Bim BH3 peptide 86-111 (Homo sapiens) (UniProt O43521); test: ITC
[2] = target: Bim BH3 peptide 86-111 (Homo sapiens) (UniProt O43521); test: fluorescence polarization

UniProt O43521, sequence (O43521 86-111): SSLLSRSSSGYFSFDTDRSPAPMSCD

In the case of Hsp70 NBD (from UniProt P0DMV8), the Kd [1] is listed as 400 nM and the Kd [2] is listed as greater than 30000 nM.
